The values below come from ChEMBL document CHEMBL4340506, “Inhibition of a viral prolyl hydroxylase” (Bioorg Med Chem, 2019).

What is called IC50 is the midpoint of a concentration-inhibition curve. Broadly, the kcat is the number of substrate molecules converted per active site and unit of time at saturation. For orientation: Km means the substrate concentration at which the rate is half of its maximum.

The target of one series is T1, Prolyl 4-hydroxylase (Paramecium bursaria Chlorella virus 1, UniProt Q84406).
T1 sequence (Q84406 whole entry): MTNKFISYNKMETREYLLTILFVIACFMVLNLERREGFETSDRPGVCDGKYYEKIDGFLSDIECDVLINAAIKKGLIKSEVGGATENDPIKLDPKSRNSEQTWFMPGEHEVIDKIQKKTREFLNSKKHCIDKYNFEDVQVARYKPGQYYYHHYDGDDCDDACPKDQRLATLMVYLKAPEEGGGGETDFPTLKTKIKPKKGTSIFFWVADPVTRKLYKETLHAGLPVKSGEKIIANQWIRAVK
Put plainly: Inhibition of N-terminal His6-tagged recombinant Paramecium bursaria chlorella virus 1 CPH expressed in Escherichia coli Rosetta 2 (DE3) cells pre-incubated for 5 mins before 2OG as substrate and Fe2 as co-factor addition in presence of L-ascorbate and measured after 5 mins MALDI TOF MS analysis.

For a further series, the target named is Egl nine homolog 1 (Homo sapiens, UniProt Q9GZT9). The series can be described thus: Inhibition of recombinant human PHD2 by alphascreen assay.
Chain of Egl nine homolog 1 (Q9GZT9 whole entry): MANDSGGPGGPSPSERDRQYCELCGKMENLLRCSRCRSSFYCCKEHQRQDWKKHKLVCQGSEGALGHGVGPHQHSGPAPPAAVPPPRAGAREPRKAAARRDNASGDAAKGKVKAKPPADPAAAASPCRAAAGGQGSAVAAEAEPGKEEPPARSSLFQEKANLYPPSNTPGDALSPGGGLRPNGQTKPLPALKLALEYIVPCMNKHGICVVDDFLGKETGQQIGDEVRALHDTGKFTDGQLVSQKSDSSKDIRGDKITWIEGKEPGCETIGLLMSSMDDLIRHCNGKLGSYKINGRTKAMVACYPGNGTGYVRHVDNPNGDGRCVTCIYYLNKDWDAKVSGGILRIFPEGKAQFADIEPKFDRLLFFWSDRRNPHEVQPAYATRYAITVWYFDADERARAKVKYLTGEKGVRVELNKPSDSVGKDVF
Compound in series [1]: C[C@H](NC(=O)[C@@H]1CCCN1)C(=O)N1CCC[C@H]1C(=O)N[C@@H](CCCCN)C(=O)N1C[C@H](O)C[C@H]1C(=O)N[C@@H](C)C(=O)N1CCC[C@H]1C(=O)N[C@@H](CCCCN)C(=O)O
Put plainly: Substrate activity at N-terminal His6-tagged recombinant Paramecium bursaria chlorella virus 1 CPH expressed in Escherichia coli Rosetta 2 (DE3) cells assessed as substrate Kcat incubated for 16 hrs in presence of 2OG by MALDI TOF MS analysis.

Compound in series [2]: C[C@H](NC(=O)[C@@H]1CCCN1)C(=O)N1CCC[C@H]1C(=O)N[C@@H](CCCCN)C(=O)N1C[C@H](O)C[C@H]1C(=O)N[C@@H](C)C(=O)N1CCC[C@H]1C(=O)N[C@@H](CCCCN)C(=O)O
The series can be described thus: (§1) Substrate activity at N-terminal His6-tagged recombinant Paramecium bursaria chlorella virus 1 CPH expressed in Escherichia coli Rosetta 2 (DE3) cells assessed as Km(app) for ascorbate incubated for 16 hrs in presence of ascorbate, 2OG and Fe2 by MALDI TOF MS analysis.

Compound in series [3]: C[C@H](NC(=O)[C@@H]1CCCN1)C(=O)N1C[C@H](O)C[C@H]1C(=O)N[C@@H](CCCCN)C(=O)N1CCC[C@H]1C(=O)N[C@@H](C)C(=O)N1CCC[C@H]1C(=O)N[C@@H](CCCCN)C(=O)O
The description is as §1.

Compound in series [4]: C[C@H](NC(=O)[C@@H]1CCCN1)C(=O)N1CCC[C@H]1C(=O)N[C@@H](CCCCN)C(=O)N1C[C@H](O)C[C@H]1C(=O)N[C@@H](C)C(=O)N1CCC[C@H]1C(=O)N[C@@H](CCCCN)C(=O)O
The series can be described thus: (§2) Substrate activity at N-terminal His6-tagged recombinant Paramecium bursaria chlorella virus 1 CPH expressed in Escherichia coli Rosetta 2 (DE3) cells assessed as Km for 2OG incubated for 16 hrs in presence of 2OG and Fe2 by MALDI TOF MS analysis.

Compound in series [5]: C[C@H](NC(=O)[C@@H]1CCCN1)C(=O)N1C[C@H](O)C[C@H]1C(=O)N[C@@H](CCCCN)C(=O)N1CCC[C@H]1C(=O)N[C@@H](C)C(=O)N1CCC[C@H]1C(=O)N[C@@H](CCCCN)C(=O)O
Described as §2.

Compound in series [6]: C[C@H](NC(=O)[C@@H]1CCCN1)C(=O)N1CCC[C@H]1C(=O)N[C@@H](CCCCN)C(=O)N1C[C@H](O)C[C@H]1C(=O)N[C@@H](C)C(=O)N1CCC[C@H]1C(=O)N[C@@H](CCCCN)C(=O)O
The series can be described thus: (§3) Substrate activity at N-terminal His6-tagged recombinant Paramecium bursaria chlorella virus 1 CPH expressed in Escherichia coli Rosetta 2 (DE3) cells assessed as Km(app) for Fe2 incubated for 16 hrs in presence of 2OG and Fe2 by MALDI TOF MS analysis.

Compound in series [7]: C[C@H](NC(=O)[C@@H]1CCCN1)C(=O)N1C[C@H](O)C[C@H]1C(=O)N[C@@H](CCCCN)C(=O)N1CCC[C@H]1C(=O)N[C@@H](C)C(=O)N1CCC[C@H]1C(=O)N[C@@H](CCCCN)C(=O)O
The description is as §3.

Compound in series [8]: C[C@H](NC(=O)[C@@H]1CCCN1)C(=O)N1CCC[C@H]1C(=O)N[C@@H](CCCCN)C(=O)N1C[C@H](O)C[C@H]1C(=O)N[C@@H](C)C(=O)N1CCC[C@H]1C(=O)N[C@@H](CCCCN)C(=O)O
The series can be described thus: Substrate activity at N-terminal His6-tagged recombinant Paramecium bursaria chlorella virus 1 CPH expressed in Escherichia coli Rosetta 2 (DE3) cells assessed as substrate Km incubated for 16 hrs in presence of 2OG by MALDI TOF MS analysis.

For the molecule `O=C(O)CNC(=O)c1c(O)c2ccccc2n(Cc2ccccc2)c1=O`, the IC50 amounted to 8.5 µM at Prolyl 4-hydroxylase and 0.022 µM on Egl nine homolog 1.

B1: Prolyl 4-hydroxylase (Paramecium bursaria Chlorella virus 1), Q84406 (protein)
chain: T1 sequence (Q84406 whole entry)
Regarding B1, in [1], the kcat was determined as 52.1 s⁻¹. Further, the Km was found to be 13.8 µM in series [2]; 1.7 µM in [3]; 27.4 µM in series [4]; 29.5 µM in series [5]; 1.1 µM in series [6]; 0.9 µM in [7]. Also, the Km in series [8] amounted to 230 µM.
